Measurements as given in article PMC9838878 (Science (New York, N.Y.), 2022).

Target: recombinant KIT-extracellular domain-Fc fragment fusion protein (KIT-ECD-Fc) (human, UniProt P10721 26-524)
Assay: MST

Sequence of recombinant KIT-extracellular domain-Fc fragment fusion protein (KIT-ECD-Fc) (P10721 26-524): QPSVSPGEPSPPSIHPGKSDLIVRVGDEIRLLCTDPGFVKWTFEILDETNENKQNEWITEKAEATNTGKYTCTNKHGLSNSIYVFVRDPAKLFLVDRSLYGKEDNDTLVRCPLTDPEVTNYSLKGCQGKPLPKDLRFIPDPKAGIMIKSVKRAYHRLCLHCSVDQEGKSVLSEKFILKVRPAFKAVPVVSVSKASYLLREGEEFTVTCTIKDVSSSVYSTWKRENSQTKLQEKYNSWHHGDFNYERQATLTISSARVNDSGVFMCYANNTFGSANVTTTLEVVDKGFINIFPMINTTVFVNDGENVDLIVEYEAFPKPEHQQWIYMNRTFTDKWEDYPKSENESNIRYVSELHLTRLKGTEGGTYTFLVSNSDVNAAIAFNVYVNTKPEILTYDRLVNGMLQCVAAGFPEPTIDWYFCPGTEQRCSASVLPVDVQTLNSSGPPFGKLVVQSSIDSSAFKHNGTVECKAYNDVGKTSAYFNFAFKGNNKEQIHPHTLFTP

B1: meteorin-like (METRNL), protein added as ligand (ligand, human, UniProt Q641Q3 46-311, looked up)
chain: QYSSDRCSWKGSGLTHEAHRKEVEQVYLRCAAGAVEWMYPTGALIVNLRPNTFSPARHLTVCIRSFTDSSGANIYLEKTGELRLLVPDGDGRPGRVQCFGLEQGGLFVEATPQQDIGRRTTGFQYELVRRHRASDLHELSAPCRPCSDTEVLLAVCTSDFAVRGSIQQVTHEPERQDSAIHLRVSRLYRQKSRVFEPVPEGDGHWQGRVRTLLECGVRPGHGDFLFTGHMHFGEARLGCAPRFKDFQRMYRDAQERGLNPCEVGTD
binding result: binds
